Experimental data published in patent publication US20230295316A1 (FRED HUTCHINSON CANCER CENTER, published 2023).

T1: Hs_CD123_6His-Avi (CD123 ECD-His-Avi fusion protein) (human, UniProt P26951 19-303)
T1 construct: The signal peptide is marked only by bold type, so its limits cannot be read here and were not guessed; also called His-Avi tagged peptide encompassing the ECD of human CD123
T1 sequence: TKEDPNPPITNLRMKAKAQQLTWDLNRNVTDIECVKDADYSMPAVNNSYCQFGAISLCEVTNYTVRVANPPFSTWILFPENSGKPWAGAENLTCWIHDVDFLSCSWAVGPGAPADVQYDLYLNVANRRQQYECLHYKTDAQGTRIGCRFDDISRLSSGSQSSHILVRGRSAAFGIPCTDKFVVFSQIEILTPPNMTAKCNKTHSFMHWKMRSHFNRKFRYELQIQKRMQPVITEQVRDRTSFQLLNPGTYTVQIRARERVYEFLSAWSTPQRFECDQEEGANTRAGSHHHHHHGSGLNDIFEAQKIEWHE


Molecular target: T2, human interleukin-3 (IL-3) receptor alpha-chain (CD123), on cells (human, UniProt P26951 19-378)
T2 construct: whole, on cells; also called human CD123
Assay: flow cytometry (PE-Cy7-A), mAb + labeled secondary antibody, RS4;11 cells transduced with human CD123

binding result	Binder
binds	123-5C7 (murine anti-CD123 antibody, IgG2b isotype, Kappa Light Chain) (antibody, V domains shown, murine IgG2b, kappa) VH: DVQLQESGPGLVKPSQSLSLTCSVTGYSITSSYYWNWIRQFPGNKLEWMGYISYDGSNNYNPSLKNRISITRDTSKTQFFLNLNSVTTEDTATYYCARGDGYYFDYWGQGTTLTVSS VL: DFVMSQSPSSLAVSVGEKITINCKSSQSLFFGSTQKNYLAWYQQKPGQSPKLLIFWSSTRESGVPDRFTGSGSGTDFTLSINSVKAEDLAVYYCQQYYNYPWTFGGGTKLEIK
binds	123-13E1 (murine anti-CD123 antibody, IgG2b isotype, Kappa Light Chain) (antibody, V domains shown, murine IgG2b, kappa) VH: EVQLQQSGPELVKPGASVKISCKASGYTFTDHYMNWVKQSHGERLEWIGDIIPNNGGSTYSQKFKGKATLTVDKSSSTAYMELRSLTSEDSAVYYCARNGYYWYFDVWGTGTTVTVSS VL: DIVLTQSPSSLAMSVGQKVTMSCKSSQSLLNSSNQKNYLAWYQQKPGQSPKLLVYFASTRESGVPDRFTGSGSGTDFTLTISTVQAEDLAFYYCHQHYSIPRTFGGGTKLEIT
binds	123-12A10 (murine anti-CD123 antibody, IgG2b isotype, Kappa Light Chain) (antibody, V domains shown, murine IgG2b, kappa) VH: EVQLQQSGPELVKPGASVKISCKTSGYTFTDYYMNWVKQSHGKSLEWIGDIIPNNGGTSYHQKFKGKATLTVDKSSNTAYMELRSLTSEDSAVYYCARYGSSWFFDVWGTGTTVTVSS VL: DIVMSQSPSSLAVSVGEKVTMSCKSSQSLLHSSNQKNYLAWYQQKPGQSPKLLIYWASTRESGVPDRFTGSGSGTDFTLTISSVKAEDLAVYYCQQYYSFPRTFGGGTKLEIK

Molecular target: T2, human interleukin-3 (IL-3) receptor …
Assay: flow cytometry (APC-A), mAb reacted with 5, 10 or 15 equivalents of B10 + secondary antibody, RS4;11 cells overexpressing human CD123 [CONT.]
From the text: FIG. 4. Parental CD123-negative human RS4;11 ALL cells and RS4;11 cells engineered to overexpress human CD123 were used for flow cytometric phenotyping of a series of anti-CD123 mAbs (11F11, 5G4, 10C4, 1H8) that were either left unmodified or were reacted with 5, 10, or 15 equivalents of B10. A secondary mAb-only control is also shown.

binding result	Binder
binds	1H8 reacted with B10 (antibody, V domains shown, B10 on lysine amines, positions not given; B10 (isothiocyantophenethyl-ureido-closo-decaborate(2-)) on lysine amines, positions not given, also called B10-conjugated 1H8) VH: EVKLVESEGGLVQPGSSMKLSCTASGFTFSDYYMAWVRQVPEKGLEWVANIDDEGSSTYYLDSLKSRFIISRDNAKNILYLQMTSLKSEDTATYYCARGTTQTSFFVHWGQGTLVTVSA VL: DIVLTQSPASLAVSLGQRATISCRASQSVSSSSYSFMHWYQKKPRQPPKLLIKYASTLEAGVPARFSGSGSGTDFTLNIHPVEEEDTATYYCQHSWEIPYTFGGGTKLEIK
binds	10C4-B10 (B10-conjugated 10C4 anti-CD123 mAb) (antibody, V domains shown, B10 on lysine amines, positions not given; B10 (isothiocyantophenethyl-ureido-closo-decaborate(2-)) on lysine amines, positions not given) VH: QVQLKESGPGLVAPSQNLSITCTVSGFSLTTYDINWIRQPPGKGLEWLGVIWTGGGTNYNSAFMSRLSISKDNSKSQVFLKMNSLQTDDTAMYYCVRGDTYHYALDFWGQGTSVTVSS VL: DIVMSQSPSSLAVSAGEKVTMSCKSSQSLLSSGTRKNYLAWYQQKPGQSPKLLIYWASTRESGVPDRFTGSGSGTDFTLTISSVQAEDLAVYYCKQSYILFTFGSGTKLEIK
binds	11F11 reacted with B10 (antibody, V domains shown, B10 on lysine amines, positions not given; B10 (isothiocyantophenethyl-ureido-closo-decaborate(2-)) on lysine amines, positions not given, also called B10-conjugated 11F11) VH: EVTLVESGGGLEQPGGSLSLSCAASGFTFTDYYMSWVRQPPGKALEWLALIRNKANGYTTEYSASVKGRFTISRDNSQSILYLQMNALRAEDSATYYCARQVRNYYGYEEDALDYWGQGTSVTVSS VL: DIVLTQSPASLAVSLGQRATISCRASESLDFYGNSFMHWYQQKSGQPPKLLISRASNLESGIPPRFSGSGSRTDFTLTIDPVEADDVATYYCQQSYEDPYTFGGGTKLEIK
binds	5G4 reacted with B10 (antibody, V domains shown, B10 on lysine amines, positions not given; B10 (isothiocyantophenethyl-ureido-closo-decaborate(2-)) on lysine amines, positions not given, also called B10-conjugated 5G4) VH: DVQLQESGPGLVKPSQSLSLTCTVTGYSITSDYVWNWIRQFPGNKLEWMAYISYSGTTSYNPSLSSRISITRDTSSNQFFLQLNSVTSEDTATYYCARGLDYWGQGTSVTVSS VL: QIVLTQSPAIMSVSLGERVTMTCTASSSVTSSYFHWYQQKPGSSPKLWIYSTSNLASGVPARFSGSGSGTSYSLTISSMEAEDAATYYCHQYHRSPRTFGGGTKLEIK

Molecular target: T2, human interleukin-3 (IL-3) receptor …
Assay: flow cytometry (PE-A), 2 µg/mL by the legend (hybridoma supernatants by paragraph 203) + labeled secondary antibody, parental MOLM-13 cells against MOLM-13 CD123KO

binding result	Binder
binds	123-ATX1B2 (Human anti-CD123 antibody from ATX-GX mouse, Kappa Light Chain) (antibody, V domains shown) VH: QVQLVQSGAEVKKPGASVEVSCKASGYTFTGYYIHWVRQAPGQGLEWMGWINPNSGGTNYAQKFQGRVTMTWDTSISTAFMELSRLRSDDTAVYSCARDRGGPYFDYWGQGTLVIVSS VL: DIQMTQSPSSLSASVGDRVTITCQASQDITNYLNWYQQKPGKAPKLQIYDASNLETGVPSRFSGSGSGTDFTFTISSLQPEDIATYYCQQHDDLPLTFGGGTKVEIK
binds	123-ATX1F2 (Human anti-CD123 antibody from ATX-GX mouse, Kappa Light Chain) (antibody, V domains shown) VH: QVQLVQSGAEVKKPGASVKVSCKVSGYTLTEFSMHWVRQAPGKGLEWMGVFDPEHGATIYAQKFQGRVTMTEDTSTDTAYMDLSYLRSEDTAVYYCATYFDFWSGYSHFDFWGQGTLVTVSS VL: DIQMTQSPSSLSASVGDRVTITCRASQGIRNDLGWYQQRPGKAPKRLIYAASSLQSGVPSRFSGSGSGTEFTLAISSLQPEDFATYSCLQHNSYPWTFGQGTKVEIK
binds	123-ATX1B7 (Human anti-CD123 antibody from ATX-GX mouse, Kappa Light Chain) (antibody, V domains shown) VH: QVQLVQSGAEVKKPGASVKVSCKASGYTFTSFGLTWVRQAPGQGLEWMGWFNAYSGKTYYAPTLQDRVTMTTDPSTSTAYMELMSLTSDDTAIYYCARDLVFDYWGQGTLVTVSS VL: EIVLTQSPGTLSLSPGERATLSCRASQSFSDRYLAWYQQKPGQAPRLLIYGTSSRATGIPDRFSGSGSGTDFTLTISRLESEDSAVYYCQQYGRSPFTFGPGTKVDIK
binds	123-ATX1E5 (Human anti-CD123 antibody from ATX-GX mouse, Kappa Light Chain) (antibody, V domains shown) VH: QVQLVQSGAEVKKPGASVKVSCKASGYTFTSFGISWVRQAPGQGLEWMGWFNAYSGNTYYAPTLQDRVTMTTDTSTSTAYMELMSLRSDDTAIYYCARDLVFDYWGQGTLVTVSS VL: EIVLTQSPGTLSLSPGERATLSCRASQSFSDRYLAWYQQKPGQAPRLLIYGTFSRATGIPDRFSGSGSGTDFTLTISRLDSEDFAVYYCQQYGSSPFTFGPGTKVDIK

Molecular target: T1, Hs_CD123_6His-Avi (CD123 ECD-His-Avi …)
Assay: SPR (Biacore T-100), univalent affinity; antibody captured on the CM4 chip, human CD123 ECD as analyte
Protocol: FIGS. 21A-21B. Surface plasmon resonance (Biacore T-100) analyses were performed to rigorously/precisely determine univalent binding affinities of recombinant, fully human versions of the anti-human CD123 monoclonal antibodies 1B5, 1D9, and 1E3, using human IgG1 (FIG. 21A) and human IgG4 frameworks (FIG. 21B). For these experiments, a peptide encoding the complete extracellular portion of human CD123 was used, and the antibodies were captured on the biosensor chip (CM4) via a Fc gamma-specific goat anti-human IgG and amine coupling.

Binder	Kd [nM]	koff [s⁻¹]	kon [M⁻¹ s⁻¹]
123-ATX1E3, fully human recombinant antibody, human IgG4 framework (antibody, also called 1E3 (human IgG4)) heavy: not shown light: EIVLMQSPGTLSLSPGERVTLSCRASQTFSSSYLAWYQQKPGQAPRLLIYGASSRATGIPDRFSGSGSGTDFTLTINRLEPEDFAVYYCQQYGRSPFTFGPGTKLDIKRTVAAPSVFIFPPSDEQLKSGTASVVCLLNNFYPREAKVQWKVDNALQSGNSQESVTEQDSKDSTYSLSSTLTLSKADYEKHKVYACEVTHQGLSSPVTKSFNRGEC	0.792	7.02e-05	88600
123-ATX1D9, fully human recombinant antibody, human IgG4 framework (antibody, Lambda light chain; also called 1D9 (human IgG4)) heavy: not shown light: QSALTQPPSASGSPGQSVTISCTGTSSDVGGYNYVSWYQQHPGKAPKIMIYEVNKRPAGVPDRFSGSKSGNTASLTVSGLQAEDEAHYYCNSYTDSNNLIFGGGTKLTVLGQPKANPTVTLFPPSSEELQANKATLVCLISDFYPGAVTVAWKADGSPVKAGVETTKPSKQSNNKYAASSYLSLTPEQWKSHRSYSCQVTHEGSTVEKTVAPTECS	0.594	4.19e-05	70600

Further lines, results first:

Kd [nM]	koff [s⁻¹]	kon [M⁻¹ s⁻¹]	Binder
0.652	6.15e-05	94400	123-ATX1E3, fully human recombinant antibody, human IgG1 framework (antibody, also called 1E3 (human IgG1)) heavy: not shown light: EIVLMQSPGTLSLSPGERVTLSCRASQTFSSSYLAWYQQKPGQAPRLLIYGASSRATGIPDRFSGSGSGTDFTLTINRLEPEDFAVYYCQQYGRSPFTFGPGTKLDIKRTVAAPSVFIFPPSDEQLKSGTASVVCLLNNFYPREAKVQWKVDNALQSGNSQESVTEQDSKDSTYSLSSTLTLSKADYEKHKVYACEVTHQGLSSPVTKSFNRGEC
0.563	3.68e-05	65500	123-ATX1D9, fully human recombinant antibody, human IgG1 framework (antibody, Lambda light chain; also called 1D9 (human IgG1)) heavy: not shown light: QSALTQPPSASGSPGQSVTISCTGTSSDVGGYNYVSWYQQHPGKAPKIMIYEVNKRPAGVPDRFSGSKSGNTASLTVSGLQAEDEAHYYCNSYTDSNNLIFGGGTKLTVLGQPKANPTVTLFPPSSEELQANKATLVCLISDFYPGAVTVAWKADGSPVKAGVETTKPSKQSNNKYAASSYLSLTPEQWKSHRSYSCQVTHEGSTVEKTVAPTECS
